The nature of series [1]: Preservation of NGAL spiked in artificial urine dried on paper (ELISA). The class given is physicochemical. As to the method:
The efficacy was evaluated of ZIF-8 encapsulation in preserving NGAL upon exposure to harsh conditions (such as elevated temperatures) that would normally lead to protein denaturation and loss of biospecimen integrity. NGAL-spiked artificial urine dried on paper substrates, both with and without ZIF-8 encapsulation, was stored at 25, 40, or 60° C. for 1 week. Before analysis, the optimized elution buffer (0.2 M phosphate buffer at pH 5.6+Tween 20+EDTA, see Table 1 and FIGS. 8 and 9 for details) was used to elute NGAL from the paper substrates.
The slightly acidic environment (at or below pH 6) was employed to dissociate ZIF-8 crystals and release encapsulated NGAL via breaking coordination between the zinc ions and imidazolate. ZIF-8 encapsulated NGAL dried on the paper was almost fully eluted (>95%) whereas NGAL alone dried on the paper was only partially eluted (˜75%) (FIG. 9). It is important to note that ZIF-8 encapsulation prevented irreversible adsorption of proteins on the cellulose fibers by creating a crystal interface between the protein and paper substrate. […] NGAL concentration was tested by ELISA when NGAL was spiked in four different media. The same concentration of NGAL in phosphate-buffered saline (PBS) at pH 7.4 was set as the reference (100%). […] After storage and elution, the concentration of NGAL in the eluate was quantified using the NGAL sandwich ELISA. The preservation efficacy (preservation %) was calculated by comparing the NGAL amount in the eluate to the spiked NGAL amount in the artificial urine. […] NGAL added on a paper card was stored at 25, 40 or 60° C. for one week. […] The eluates were obtained by eluting paper cards dried with NGAL-spiked artificial urine with or without MOF encapsulation after storage at 40° C. for 1 week.
The preservation efficacy critically depended on the concentrations of 2-methylimidazole and zinc acetate (FIG. 14). […] The maximal preservation percentage was obtained using 160 mM of 2-methylimidazole and 40 mM of zinc acetate. […] A low preservation was noted upon using 40 mM 2-methylimidazole with 10 mM zinc acetate, which is attributed to incomplete encapsulation of NGAL under this condition (˜70% encapsulation of NGAL using 40 mM 2-methylimidazole with 10 mM zinc acetate, FIG. 7). Subsequently, using the optimal ZIF-8 precursor concentration (160 mM 2-methylimidazole and 40 mM zinc acetate), the storage time was extended under different temperatures up to 4 weeks (FIG. 11B). […] Different dried paper strips were sampled at selected time points (2, 3 or 4 weeks) to monitor possible changes in NGAL preservation. With ZIF-8 encapsulation, over 70% of NGAL on paper was preserved up to 4 weeks (the maximum time tested) at all three temperatures (25, 40 and 60° C.), as opposed to 20% preservation on samples without ZIF-8 encapsulation. […] Remarkably, 70% of NGAL on paper could be preserved within 4 weeks at 60° C., which represented an extremely harsh storage condition (a surrogate for long-term storage stability at room temperature).
Sample preparation. NGAL-spiked artificial urine (50 μg/ml of NGAL, 25 μl) or patient urine (25 μl) was first mixed with 2-methylimidazole aqueous solution (12.5 μl) and then zinc acetate dihydrate aqueous solution (12.5 μl). The final concentrations of 2-methylimidazole after mixing were 320 mM, 160 mM, 80 mM and 40 mM. The final concentrations of zinc acetate dihydrate after mixing were 80 mM, 40 mM, 20 mM and 10 mM. […]
A general note: In an ELISA, binding on a coated surface is turned into a signal by an enzyme label.

Series [2] can be described thus: Recovery/elution of NGAL from ZIF-8 crystals and paper substrates (ELISA). Particulars: dried on paper, recovered immediately after drying; spiked NGAL amount = 100%. Type of series: physicochemical. From the text: Preliminary experiments for investigating optimal buffer to dissolve NGAL embedded ZIF-8 crystals. To completely dissolve the crystals, the final pH of the system needs to be at or below 6.0 to ensure the complete release of NGAL from ZIF-8 encapsulation. For example, in the #4 composition (0.1 M phosphate buffer at pH 6.0), the crystals cannot be completely dissolved and this leads to incomplete recovery 60%, FIG. 8). Although the initial pH of the buffer is 6.0, the basic nature of ZIF-8 precursor residue in the system increases the pH of the buffer to 6.2, leading to incomplete release and recovery.
Left bar: Recovery percentage of ZIF-8 encapsulated NGAL dried on paper using the optimized elution buffer (#9 composition, 0.2 M PBS at pH=5.6 with 2 mM EDTA and 0.1% Tween 20). Middle bar: Recovery percentage of ZIF-8 encapsulated NGAL dried on paper using the #4 composition elution buffer (0.1 M PBS at pH=6 and 0.1% Tween 20). Right bar: Recovery percentage of NGAL alone dried on paper using the conventional elution buffer recipe (PBS at pH=7.4 with 0.1% Tween 20). The samples were recovered immediately after drying. 1 ml elution buffer was used to elute each paper strip. The spiked NGAL amount was set as the reference (100% recovery).
Protein recovery. […]

B1: neutrophil gelatinase-associated lipocalin (protein, UniProt P80188 21-198, looked up)
Neutrophil …: QDSTSDLIPAPPLSKVPLQQNFQDNQFQGKWYVVGLAGNAILREDKDPQKMYATIYELKEDKSYNVTSVLFRKKKCDYWIRTFVPGCQPGEFTLGNIKSYPGLTSYLVRVVSTNYNQHAMVFFKKVSQNREYFKITLYGRTKELTSELKENFIRFSKSLGLPENHIVFPVPIDQCIDG
notes: urinary biomarker for acute kidney injury; human recombinant
Turning to B1, the NGAL preservation entry was “less than 30%” in series [1] (paper card, 25° C., 1 week); “less than 30%” in series [1] (paper card, 40° C., 1 week); 20% in series [1] (paper, 25° C., up to 4 weeks, 160 mM 2-methylimidazole and 40 mM zinc acetate); 20% in series [1] (paper, 40° C., up to 4 weeks, 160 mM 2-methylimidazole and 40 mM zinc acetate); 20% in series [1] (paper, 60° C., up to 4 weeks, 160 mM 2-methylimidazole and 40 mM zinc acetate). The “elution from paper substrate” value in series [2] was roughly 75%.

Values taken from patent US11856945B2, “Methods and systems for preparing and preserving a biological sample” (Washington University, priority 2017, dated 2024).
